Legend:
[1] = target: Biomphalaria glabrata acetylcholine-binding protein (BgAChBP), native rosette protein from hemolymph (Biomphalaria glabrata); test: non-reducing SDS-PAGE; chromatographically enriched native BgAChBP under non-reducing against reducing conditions; disulfide-linked subunit dimers
[2] = target: Biomphalaria glabrata acetylcholine-binding protein (BgAChBP), native rosette protein from hemolymph (Biomphalaria glabrata); test: cryo-EM structure; native rosette protein at 1.2 mg/ml vitrified on C-flat holey carbon grids; 9770 single particles, icosahedral symmetry, resolution ~6 Å (FSC0.5 5.9 Å)
[3] = target: Recombinant BgAChBP2 (Biomphalaria glabrata); test: negative-stain electron microscopy; refolded recombinant protein, 20 mM Tris-HCl pH 8.0 with 50 mM imidazole; 2% uranyl acetate; for BgAChBP1 a 3D reconstruction (~20 Å) from ~3000 negatively stained particles

Row | stoichiometry N [3] | Substance | stoichiometry N [1] | stoichiometry N [2]
1 |  | Biomphalaria glabrata acetylcholine-binding protein (BgAChBP), native rosette protein from hemolymph (complex) | 2 | 60
2 | 5 | Recombinant BgAChBP2 (natural protein) |  | 
